One series deals with FANCI R1285Q;FANCD2 (D2) (Homo sapiens;Homo sapiens, UniProt Q9NVI1;Q9BXW9 1-1328;1-1451, R1285Q|). Briefly: PIFE; minor, insignificant reduction vs WT I+D2; Kd only in bar graph; EMSA: 16 mM Tris-HCl pH 8, 150 mM NaCl, 4.4% glycerol, 0.07 mg/ml BSA, 7 mM DTT, 4 mM EDTA, 2 nM DNA, on ice 20 min, 4% PAGE in 0.5x TBE (4 C). PIFE: 150 mM NaCl, 125 nM DNA, 22 C. The following applies: protein: recombinant;recombinant; tags: His6 (N-term);FLAG (EMSA); His6-3C, cleaved in some cases; copies: 1;1; label: 5' IRDye700 on both strands; blunt.
FANCI R1285Q;FANCD2 (D2), sequence (Q9NVI1 whole entry R1285Q, chain 1 of 2): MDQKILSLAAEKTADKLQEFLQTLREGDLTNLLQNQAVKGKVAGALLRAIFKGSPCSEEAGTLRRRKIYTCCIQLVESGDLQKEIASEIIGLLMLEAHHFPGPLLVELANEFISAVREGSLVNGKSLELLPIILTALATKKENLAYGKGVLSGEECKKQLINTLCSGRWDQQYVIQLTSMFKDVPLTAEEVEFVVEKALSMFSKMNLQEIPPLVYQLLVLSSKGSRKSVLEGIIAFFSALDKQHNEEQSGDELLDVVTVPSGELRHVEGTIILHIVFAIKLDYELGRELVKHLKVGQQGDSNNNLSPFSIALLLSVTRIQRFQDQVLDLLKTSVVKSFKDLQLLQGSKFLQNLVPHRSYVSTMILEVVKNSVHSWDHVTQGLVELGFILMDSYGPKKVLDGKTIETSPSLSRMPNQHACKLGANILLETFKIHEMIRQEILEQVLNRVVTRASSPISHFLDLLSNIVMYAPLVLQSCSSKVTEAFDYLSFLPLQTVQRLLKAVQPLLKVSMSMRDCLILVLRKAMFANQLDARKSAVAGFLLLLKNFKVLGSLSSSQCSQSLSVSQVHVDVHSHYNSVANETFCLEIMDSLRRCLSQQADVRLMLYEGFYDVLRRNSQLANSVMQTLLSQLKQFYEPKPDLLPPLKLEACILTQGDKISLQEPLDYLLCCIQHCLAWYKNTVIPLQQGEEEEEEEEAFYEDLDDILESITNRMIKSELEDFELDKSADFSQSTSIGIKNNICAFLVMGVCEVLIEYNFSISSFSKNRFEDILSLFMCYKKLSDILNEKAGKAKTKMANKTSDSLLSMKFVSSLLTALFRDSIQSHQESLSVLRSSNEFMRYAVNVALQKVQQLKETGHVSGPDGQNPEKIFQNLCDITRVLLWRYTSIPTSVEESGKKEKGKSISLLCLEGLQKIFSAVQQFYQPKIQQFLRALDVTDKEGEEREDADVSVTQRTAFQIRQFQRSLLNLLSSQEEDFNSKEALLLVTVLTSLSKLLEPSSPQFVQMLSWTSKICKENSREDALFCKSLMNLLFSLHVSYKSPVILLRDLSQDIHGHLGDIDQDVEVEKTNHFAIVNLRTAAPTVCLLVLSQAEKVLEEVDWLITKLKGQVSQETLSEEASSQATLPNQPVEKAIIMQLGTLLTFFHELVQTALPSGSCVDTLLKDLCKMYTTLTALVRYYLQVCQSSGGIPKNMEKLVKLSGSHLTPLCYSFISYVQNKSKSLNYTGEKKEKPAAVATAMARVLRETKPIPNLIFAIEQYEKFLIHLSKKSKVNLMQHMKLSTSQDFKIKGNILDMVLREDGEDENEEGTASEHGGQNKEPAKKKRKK
FANCI R1285Q;FANCD2 (D2), sequence (Q9BXW9 whole entry, chain 2 of 2): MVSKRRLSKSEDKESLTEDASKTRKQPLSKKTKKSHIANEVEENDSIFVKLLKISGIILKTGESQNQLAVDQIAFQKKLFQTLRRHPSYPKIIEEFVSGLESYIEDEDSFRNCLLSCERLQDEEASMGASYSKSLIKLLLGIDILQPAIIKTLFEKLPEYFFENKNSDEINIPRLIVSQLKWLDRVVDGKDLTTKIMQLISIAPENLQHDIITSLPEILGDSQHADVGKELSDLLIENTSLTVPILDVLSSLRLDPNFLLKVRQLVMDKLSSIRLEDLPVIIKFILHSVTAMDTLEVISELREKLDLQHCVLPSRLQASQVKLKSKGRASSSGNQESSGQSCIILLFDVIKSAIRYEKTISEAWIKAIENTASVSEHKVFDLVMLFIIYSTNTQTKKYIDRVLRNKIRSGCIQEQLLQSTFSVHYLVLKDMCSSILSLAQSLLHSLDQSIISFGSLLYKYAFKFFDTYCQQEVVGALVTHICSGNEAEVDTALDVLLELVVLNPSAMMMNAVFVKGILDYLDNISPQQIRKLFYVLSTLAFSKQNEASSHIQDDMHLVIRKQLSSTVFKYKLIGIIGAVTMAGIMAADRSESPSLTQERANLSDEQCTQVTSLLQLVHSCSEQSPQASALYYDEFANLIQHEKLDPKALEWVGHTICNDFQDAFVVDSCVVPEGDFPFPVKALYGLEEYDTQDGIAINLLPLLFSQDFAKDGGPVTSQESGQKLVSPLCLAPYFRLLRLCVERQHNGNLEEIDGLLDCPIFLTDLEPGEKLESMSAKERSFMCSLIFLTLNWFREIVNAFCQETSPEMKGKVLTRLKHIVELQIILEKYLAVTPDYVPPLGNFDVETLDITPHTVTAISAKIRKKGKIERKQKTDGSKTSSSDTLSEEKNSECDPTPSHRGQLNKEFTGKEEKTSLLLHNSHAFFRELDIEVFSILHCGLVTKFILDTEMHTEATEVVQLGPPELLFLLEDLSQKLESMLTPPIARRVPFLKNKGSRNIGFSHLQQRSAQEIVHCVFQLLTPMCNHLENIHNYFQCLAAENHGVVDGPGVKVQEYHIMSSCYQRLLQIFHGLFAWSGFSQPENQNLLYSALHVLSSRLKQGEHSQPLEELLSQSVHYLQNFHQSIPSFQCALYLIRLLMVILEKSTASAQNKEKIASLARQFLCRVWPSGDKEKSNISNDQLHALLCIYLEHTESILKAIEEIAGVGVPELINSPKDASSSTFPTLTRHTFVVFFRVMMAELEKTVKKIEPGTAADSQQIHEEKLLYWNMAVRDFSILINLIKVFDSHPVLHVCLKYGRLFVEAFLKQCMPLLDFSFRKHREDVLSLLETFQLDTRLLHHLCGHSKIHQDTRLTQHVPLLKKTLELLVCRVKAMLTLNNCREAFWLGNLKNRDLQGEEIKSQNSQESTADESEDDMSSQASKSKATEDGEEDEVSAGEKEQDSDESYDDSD

In the next series the target is FANCI (I);FANCD2 (D2) (Homo sapiens;Homo sapiens, UniProt Q9NVI1;Q9BXW9 1-1328;1-1451, |). In words: PIFE; 150 mM NaCl; Kd only in bar graph; EMSA: 16 mM Tris-HCl pH 8, 150 mM NaCl, 4.4% glycerol, 0.07 mg/ml BSA, 7 mM DTT, 4 mM EDTA, 2 nM DNA, on ice 20 min, 4% PAGE in 0.5x TBE (4 C). PIFE: 150 mM NaCl, 125 nM DNA, 22 C. The conditions noted are these: protein: recombinant;recombinant; tags: His6-TEV-V5 (N-term); His6-3C, cleaved in some cases; copies: 1;1; label: 5' IRDye700 on both strands; blunt. For orientation: Mobility shift assays separate free from complexed probe on a gel.
FANCI (I);FANCD2 (D2), sequence (Q9NVI1 whole entry, chain 1 of 2): as the sequence (Q9NVI1 whole entry R1285Q, chain 1 of 2) above, with Q1285R counted along it
FANCI (I);FANCD2 (D2), sequence (Q9BXW9 whole entry, chain 2 of 2): as the sequence (Q9BXW9 whole entry, chain 2 of 2) above

B1: ds32F (dsDNA)
DNA 1: CGATCGGTAACGTATGCTGAATCTGGTGCTGG
DNA 2: CCAGCACCAGATTCAGCATACGTTACCGATCG
For the molecule B1, the binding result with FANCI R1285Q;FANCD2 (D2) and with FANCI (I);FANCD2 (D2) was “binds” throughout.
